Measured values reported in paper PMC5333794.

Columns and labels:
[1] = target: tetrameric FcγRIII detection reagent (UniProt P08637); test: Fc Array (multiplexed bead assay, tetrameric FcγRIII detection); conditions: variants incubated with gp120-coated microspheres at equal concentrations; read off a plot
gp120 (bead-conjugated) = test: Fc Array (multiplexed bead assay, anti-huIgG-PE detection); conditions: variants incubated with gp120-coated microspheres at equal concentrations; read off a plot

Chain of UniProt P08637 (P08637 17-254): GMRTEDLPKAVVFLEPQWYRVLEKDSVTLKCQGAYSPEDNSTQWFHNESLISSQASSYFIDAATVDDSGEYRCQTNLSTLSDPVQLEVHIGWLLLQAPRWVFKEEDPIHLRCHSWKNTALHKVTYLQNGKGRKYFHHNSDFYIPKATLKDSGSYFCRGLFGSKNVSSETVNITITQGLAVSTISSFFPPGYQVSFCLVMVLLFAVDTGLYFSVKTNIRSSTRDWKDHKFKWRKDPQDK

Q: For b12 K338A, which response [1] is on record?
A: Its response is 110 MFI.

Q: What about the response (gp120 (bead-conjugated)) of the same substance?
A: Its response is 13000 MFI.

Q: What does the source list for b12 G236A?
A: response [1]: 59 MFI; response (gp120 (bead-conjugated)): 14000 MFI

Q: For b12 IE/SD/GA, which response [1] is on record?
A: The response was 1100 MFI.

Q: And the response (gp120 (bead-conjugated))?
A: Its response is 13000 MFI.

Q: Which results are given for b12 IE/SD?
A: response [1]: 2000 MFI; response (gp120 (bead-conjugated)): 14000 MFI

Q: b12 D270E was tested. Which response [1] did it give?
A: Its response is 110 MFI.

Q: And the response (gp120 (bead-conjugated))?
A: The response was 14000 MFI.

Q: What does the source list for b12 SD/IE/AL?
A: response [1]: 2800 MFI; response (gp120 (bead-conjugated)): 13000 MFI

Q: With b12 I332E as the substance, how does the response [1] read?
A: Its response is 320 MFI.

Q: And the response (gp120 (bead-conjugated))?
A: Its response is 13000 MFI.

Q: For b12 S298A, which response [1] is on record?
A: Its response is 96 MFI.

Q: What about the response (gp120 (bead-conjugated)) of the same substance?
A: Its response is 14000 MFI.

Q: How did the response [1] turn out when b12 S267G was run?
A: The response was 80 MFI.

Q: And the response (gp120 (bead-conjugated))?
A: The response was 14000 MFI.

Q: Which results are given for b12 R292A?
A: response [1]: 140 MFI; response (gp120 (bead-conjugated)): 13000 MFI

Q: With b12 S239A as the substance, how does the response [1] read?
A: Its response is 110 MFI.

Q: What about the response (gp120 (bead-conjugated)) of the same substance?
A: The response was 13000 MFI.
